First the molecules themselves.
B4: HIV-1 envelope glycoprotein gp120 of isolate Bal (natural protein)
chain: not shown

Assay [1] deals with B4. The assay is described as follows: cell-based or functional assay.
For assay [2], the target named is T1, HIV-1 Env gp140 of isolate JRFL (HIV-1 isolate JRFL (clade B), UniProt Q75760). The assay is described as follows: cell-based or functional assay.
Assay [3] deals with B4. The assay is described as follows: ELISA.
The target of assay [4] is T1, HIV-1 Env gp140 of isolate JRFL. The assay is described as follows: ELISA. A general note: In an ELISA, binding on a coated surface is turned into a signal by an enzyme label.
In assay [5] the target is fusion protein of m36 with human IgG1 Fc (human). The assay is described as follows: ELISA.

B1: m36 mutant m36.4 (VHH)
VHH: QVQLVQSGGGLVQPGGSLRLSCAASAFDFSDYEMSWVREAPGKGLEWIGEINDSGNTIYNPSLKSRVTISRDNSKNTLYLQMNTLRAEDTAIYYCAIYGGNSGGEYWGQGTLVTVSS
Consider B1, for which the “IC50 of neutralisation of HIV-1 Bal Env-pseudotyped virus, HOS-CD4-CCR5 cells” value in assay [1] stood at 11 nM. Moreover, the “IC50 of neutralisation of HIV-1 JRFL Env-pseudotyped virus, HOS-CD4-CCR5 cells” value in assay [2] was determined as 27 nM.

B2: m36 mutant m36.1 (VHH)
VHH: QVQLVQSGGGLVQPGGSLRLSCAASTFDFSDYEMSWVREAPGKGLEWIGEINDSGNTIYNPSLKNRVTISRDNSKNTLYLQMNTLRAEDTAIYYCAIYGGNSGGEYWGQGTLVTVSS
Take B2: the binding result in assay [3] and in assay [4] was “binds” each time.

B3: m36 mutant m36.5 (VHH)
VHH: QVQLVQSGGGLVQPGGSLRLSCAASAFDFSDYEMSWVREAPGKGLEWIGEINDSGNTIYNPSLKSRVTISRDNSKNTLYLQMNTLSAEDTAIYYCAIYGGNSGGEYWGQGTLVTVSS
Regarding B3, the binding result in assay [3] and in assay [4] was “binds” throughout.

Turning to B4, the binding result in assay [5] is reported as “binds”.

(Values after PMC2954370 (Antiviral research, 2010).)
